The chains are these.
B1: TPR 5TU (parent)
chain: GGAUCUUCUCGAUCUAACAAAAAAGACAAAUCUGCCACAAAGCUUGAGAGCAUCUUCGGAUGCAGAGGCGGCAGCCUUCGGUGGCGCGAUAGCGCCAACGUUCUCAACUAUGACACGCAAAACGCGUGCUCCGUUGAAUGGAGUUUAUCAUG

Variants at the floor of the assay were thinned out. Some results are limits rather than exact numbers.

In this series the parent is B1. Put plainly: polymerase ribozyme fitness, log enrichment relative to wild type (log ratio); higher = more active; in vitro selection for triplet polymerase activity. The essentials:
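One round of in vitro selection, in triplicate, was applied to PCR-built, transcribed mutant libraries of each subunit of a heterodimeric triplet polymerase ribozyme. The steps were annealing with a biotinylated primer, partner subunit and triplets, incubation frozen at −7 °C, gel excision of extended constructs, streptavidin-bead capture and RT-PCR. Fitness is the logarithm, base 2, of genotype enrichment over wild-type enrichment from inverse-variance-weighted replicate averages of Illumina-sequenced inputs and outputs, keeping genotypes with ≥10 input reads and ≥1 read per output.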
For the variant GGAUCUUCUCGAUCUAACAAAAAAGACAAAACUGCCACAAAGCUUGAGAGCAUCAUCGGAUGCAGAGGCGGCAGCCUUCGGUAGCGCGAUAGCGCCAACGUUCUCAACUAUGACACACAAAACGCGUGCUCCGUUGAAUGGAGUUUAUCAUG, the “polymerase ribozyme fitness (log ratio)” value is -0.253.

With GGAUCUUCUCGAUCUAACAAAAAAGACAAAACUGCCACAAAGCUUGAGAGCAUCUUCGAAUGCAGAGGCGGCAGCCUUCGGUGACGCGAUAGCGCCAACGUGCUCAACUAUGACACGCAAAACGCGUCCUCCGUUGAAUGGCGUUUAUCAUG, the “polymerase ribozyme fitness (log ratio)” value was no more than -4.2.

For the variant GGAUCUUCUCGAUCUAACAAAAAAGACAAAACUGCCACAAAGCUUGAGAGCAUCUUCGGAUGCAGAGGCGGCAGCCUUCGGUCGCGCGAUAGCGCCAACGUUCUUAACUAUGACACGCAAAACGCGGGCUCCAUUGCAUGGAGUUUAUCAUG, the “polymerase ribozyme fitness (log ratio)” value is no more than -4.2.

For GGAUCUUCUCGAUCUAACAAAAAAGACAAACCUGCCACCAAGCUUGAGAGCAUCUUAGGAUGCAGAGGCGGCAGCGUUCGGUGGCGCGAUAGCGGCAACGUUCUCAACUAUGACACGCAAAACGCGUGCUUCGUUGAAUGGAGGUUAUCAUG, the “polymerase ribozyme fitness (log ratio)” value was no more than -4.2.

Take GGAUCUUCUCGAUCUAACAAAAAAGACAAAACUGCCACAAAGCUUGAGAGCAUCUUCGGAUGCAGAGGCGGCAGCCUUCGGUGGCGCGAGAGCGCCAACGUUCUCAACUAUGACACGCAAAACGCGUGCUCCGUUGAAUGGAGUUUAUCAUG: the “polymerase ribozyme fitness (log ratio)” value is no more than -4.2.

In the case of GGAUCUUCUCGAUCUAACAAAAAAGACAAAACUGCCACAAAGCUUGAGAGCAUCUACGGAUGCAGAGGCGGCAGCCUUCGGUGGCACGAUAGCGCCCACGUUCUAAACUAUGACACGCAAAACGCGUGCUCCGUUGAAUGGAGUCUAUCAUG, the “polymerase ribozyme fitness (log ratio)” value is no more than -4.2.

Take GGAUCUUCUCGAUCUAACAAAAAAGACAAAACUGCCACAAAGCUUGAGAGCAUCUUCGGAUGCAGAGGCGGCAGCCUUCGGUGGCGCAAAAGCGCCAACGUUCUCAACUAUGACACGCAAAACGCGUGCUCCAUUGAAUGGAGUUUAUCAUG: the “polymerase ribozyme fitness (log ratio)” value was no more than -4.2.

In the case of GGAUCUUCUCGAUCUAACAAAAAAGACAAAACUGCCACAAAGCUUGAGAGCAACUUCGGAUGCAGAGGCGGCAGCCUUCGGUGGCGCGAUAGCGCCAACGUUCUCAACUAUGACACGCAAAACGCGUGCUCCGUUGAAUGGAGUUUAUCAUG, the “polymerase ribozyme fitness (log ratio)” value was -0.327.

With GGAUCUUCUCGAUCUAACAAAAAAGACAAAACUGCCACAAAGCUUGAGAGCAUCUUCGCAUGCAGAGGCGGCAGUCUUCGGUGGCGCGAUUGCGCCAACGUUCUCAACGAUAACACGCAAAACGCGUGCUCCGUUGAAUGGAGUUUAUCAUG, the “polymerase ribozyme fitness (log ratio)” value is no more than -4.2.

As to GGAUCUUCUCGAUCUAACAAAAAAGACAAACCUGCCCCAAAGCUUGAGAGCAUCUUCGGAUGCAGAGGCGGCAGCCUUCGGUGGCGCGAUAGCGCCAACGUUCUCUCCUAUGACACGCAAAACGCGUGCUCCGUUGAAUGGAGUUUAUCAUG, the “polymerase ribozyme fitness (log ratio)” value is no more than -4.2.

For the variant GGAUCUUCUCGAUCUAACAAAAAAGACAAAACUGCCACAAAGCUUGAGAGCAGCUUCGGAUGCAGAGGCGGCAGCCUUCGGUGUCGCGAUAGCGCGAACGUUCUCAACUAUGACACGCAAAACGCGUGCUCCGUUGAAUGGAGUUUAUCAUG, the “polymerase ribozyme fitness (log ratio)” value was no more than -4.2.

With GGAUCUUCUCGAUCUAACAAAAAAGACAAAACUGCCACAAAGCAUGAGAGCCUCUUCGGAUGCAGAGGCGUCAGCCUUCGGUCGCACGAUAGCGCCCACGUUCACAACUAUGACACGCAAAACGCGUGCUCCGUUGAAUGGAGUUUAUCAUG, the “polymerase ribozyme fitness (log ratio)” value was no more than -4.2.

For the variant GGAUCUUCUCGAUCUAACAAAAAAGACAAACCUGCCACAAGGCUUGAGAGCAACAUCGGAUGCAGAGGCGGCAGCCUUCGGUGGCGCGAUAGCGCCAACGUUCUCAACUAUGACACGCAAAACGCGUGCUCCGUUGAAUGGAGUUUAUCAUG, the “polymerase ribozyme fitness (log ratio)” value is -0.0378.

Consider GGAUCUUCUCGAUCUAACAAAAAAGACAAACCUGCCACACAGCUUGAGAGCAUCUUCGGAUGCAGAGGCGGCAGCCUUCGGUGGCGCGAUAGCACCAACGUUCUCAACUAUGACACGCAAAACGCGUGCUCCGUUGAAUGGAGUUUAUCAUG, for which the “polymerase ribozyme fitness (log ratio)” value amounted to 1.25.

As for GGAUCUUCUCGAUCUAACAAAAAAGACAAAACUGCCACAAAGCUUGAGAGCAUCUUCGGAUGCAGAGGCGGCAGCCUUCGGUGGCGCGAUAGCGCCAACGUUCUCAACUAUGACACGCAAAACGCGUGCUCCGUGGAAUGGACUUUAUCAUG, the “polymerase ribozyme fitness (log ratio)” value was -3.93.

In the case of GGAUCUUCUCGAUCUAACAAAAAAGACAAAACUGCCACAAAGCUUGAGAGCAUCUUCGGAUGCAGAGGCGGCAGCCUUCGCUGGCGCGAUAGCGCGAACGUUCUCAACUAAGACACGCAAAACGCAUGCUCCGUUGAAUGGAGUUUAUCAUG, the “polymerase ribozyme fitness (log ratio)” value was no more than -4.2.

In the case of GGAUCUUCUCGAUCUAACAAAAAAGACAAAACUGCCACAAAGCUUGAGAGCAUCUUCGGAUGCAGAGCCGGCAGCAUUCGGUGGAGCGAUAGCGCCAACGUUCUCAACUAUGACACGCAAAACGCGUGCUCCGUUGAAUGGAGUUUAUCAUG, the “polymerase ribozyme fitness (log ratio)” value was no more than -4.2.

For the variant GGAUCUUCUCGAUCUAACAAAAAAGACAAACCUGCCACAAUGCUUGAGAGCAUCUUCGGAUGCAGAGGCGGCAGCCUUCGGUGGCGCGAUAGCGCCAACGUUCUCAACUAUGACGCGCAAAACGCGUGCUCCGUUGAAUGGAGGUUAUCAUG, the “polymerase ribozyme fitness (log ratio)” value is -1.6.

With GGAUCUUCUCGAUCUAACAAAAAAGACAAAACUGCCACAAAGCUAGAGAGCAUCUUCGGAUGCAGAGGCGGCAGCUUUCGGUGGUGCGAUAGUGCCAACGUUCUCAACUAUGACACGCAAAACGCGUGCUCCGUUUAAUGGAGUUUAUCCUG, the “polymerase ribozyme fitness (log ratio)” value was no more than -4.2.

The values above are taken from the RNAGym collection of RNA variant scans (doi:10.1073/pnas.2313332121).
